From paper PMC8519809 (Cell Reports, 2021)

Biological target: SARS-CoV-2 S-HexaPro protein (SARS-CoV-2, Wuhan-Hu-1 type, stabilised)
Test: SPR

B1: Fab22 (Fab, V domains shown)
VH: EVQLQQPGPVLVKPGASVRMSCKASGYRITDNFMNWVKQSHGKSLEWIGIINPYNGGTKYNQKFKGKATLTVDTSSSTAYMELNSLTSEDSAVYYCTRVRGNDYHGRAMDYWGQGTSVTVSS
VL: DVVLTQTPLSLPVNIGDQASISCKSTKSLLNRDGFTFLDWYLQKPGQSPQLLIYLVSNRFSGVPDRFSGSGSGTDFTLKISRVEAEDLGVYYCFQSNYLFTFGSGTKLEIK
**Q.** For B1, which Kd is on record?
**A.** 6.7 nM
